From the RNAGym collection of RNA variant scans (doi:10.1073/pnas.2313332121) come the findings set out here.

B1: TPR t1 (parent)
chain: GACCAAUCUGCCCUCAGAGCUCGAGAACAUCUUCGGAUGCAGAGGAGGCAGGCUUCGGUGGCGCGAUAGCGCCAACGUCCUCAACCUCCAAUGCAUCCCACCACAUGAUGAUGCCUGAAGAGCCUUGGUUUUUUG

In this data set the parent is B1. As to the kind of experiment: polymerase ribozyme fitness, log enrichment relative to wild type (log ratio); higher = more active; in vitro selection for triplet polymerase activity. The gist of the method:
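PCR was used to build mutant libraries for each subunit of a heterodimeric triplet polymerase ribozyme, which were then transcribed. A single in vitro selection round, in triplicate, used a frozen incubation at −7 °C and recovered extended constructs by gel excision, streptavidin beads and RT-PCR. Fitness is the logarithm of genotype enrichment relative to wild-type enrichment, averaged over replicates with inverse-variance weights. The logarithm is base 2, and after Illumina sequencing only genotypes with ≥10 input reads and ≥1 read per output were kept.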
With GACCAAUCUGCCCUCAGAGCUGGAGAACAUCUUCGGAUGCAGAGGAGGCAGGCUUCGGUGGCGCGAUAGCGCCAACGUCCUCAACCUCCAAUGCAUCCCACCACAUGAUGAUGCCUGGAGUGCCUUGGUUUUUUG, the “polymerase ribozyme fitness (log ratio)” value is -1.54.

As for GACCAAUCUGCCCUCAGAGCUGGAGAACAUCUUCGGAUGCAGAGGAGGCAGGCUUCGGUGGCGCGAUAGCGCCAACGUCCUCAACCUCCAAUGCAUCCCACCACAUGAUGAUGCCUGAAGAGCCUUGGUUUUUUG, the “polymerase ribozyme fitness (log ratio)” value was -2.97.

Regarding GACCAAUCUGCCCUCAGAGCUAGAGAACAUCUUCGGAUGCAGAGGAGGCAGGCUUCGGUGGCGCGACAGCGCCAACGUCAUCAACCUCCAAUGCAACCCACCACAUGAAGAUGCCUGAAGAGCCUUGGUUUUUUG, the “polymerase ribozyme fitness (log ratio)” value is -6.8.

For the variant GACCAAUCUGCCCUCAGAGCUGGAGAACAUCUUCGGAUGCAGAGGAGGCAGGCUUCGGUGGCGCGAUAGCGCCAACGUCCUCAACCUCCAAUGCGUCCCACCAUAUGAUGAUGCCUGAAGAGCCUUGGUUUUUUG, the “polymerase ribozyme fitness (log ratio)” value is -2.37.

As to GACCAAUCUGCCCUCAGAGCUGGAGAACAUCUUCGGAUGCUGAGGAGGCAGGCUUCGGUGGCGCGAUAGCGCCAACGUCCUCAACCUGCAAUGCAUCCCACCACAUGAUGAUGCCGGAAGGGCCUUGGUUUUUUG, the “polymerase ribozyme fitness (log ratio)” value is -4.87.

As to GACCAAUCUGCCCUCAGAGCUGGAGAACAUCUUCGGAUGCAGAGGAGGCAGGCUUCGGUGGCGCGAUAGCGCCAUCGUCCUCAACCUCCAAUGCAUCCCACCACAUGAUGAUGCCUGAAGAGCCUUGGUUUUUUG, the “polymerase ribozyme fitness (log ratio)” value was -3.6.

As for GACCAAUCUGCCCUCAGAGCUGGUGAACACCUUCGGAUGCAGAGGGGUCAGGCUUCGGUCGCGCGAUAGCGCCAACGUCCUCAACCUCCAAUGCAUCCCACCACAUGAUUAUGCCUGAAGAGCCUUGGUUUUUUG, the “polymerase ribozyme fitness (log ratio)” value was -6.93.

Regarding GACCAAUCUGCCCUCAGAGCUGGAGAACAUCUUCGGUUGCCGAGGAGGCAGGUUUCGGUGGCGCGAUAGCGCCAACGUCCUCAACCUCCAAUGCAUCCCACCACAUGAUGAUGCCUGAAGAGCCUUGGUUUUUUG, the “polymerase ribozyme fitness (log ratio)” value is -3.91.

On to GACCAAUCUGCCCUCAGAGCUGGAGAACAUCUUCGGAUGCAGUGGGGGCAGGCUUCGGAGGCGCGAUAGCGCCAACGUCCUCAACCUCCAAUGCAUCCCACCACAUGAUGAUGCCUGAACAGCCUUGGUUUUUUG, for which the “polymerase ribozyme fitness (log ratio)” value is -4.94.

As to GACCAAUCUGCCCUCAGAGCUGGAGAACAUCUUCGGAUGCAGAGGAGGCUGGCUUUGGUGGCGCGAUAGCGCCAAUGUCCUCAACCUGCAAUGCAUCCCACCACAUGAUGAUGCCUGAAGAGCGUUGGUUUUUUG, the “polymerase ribozyme fitness (log ratio)” value was -5.33.

With GACCAAUCUGCCCUCAGAGCUGGAGAACUUCUUCGGAUGCAGAGGAGGCAGGCUUCGGUGGCGCGAUAGCGCCAACGUCCUCAACCUCCAAUGCAUCCCACCACAUGAUGAUGCCUGAAUAGCCUUGGUUUUAUG, the “polymerase ribozyme fitness (log ratio)” value was -5.17.

With GACCAAUCUGCCCUCAGAGCUGGAGAACAUCUUCGGUUGCAGAGGAGGCAGGCUUCGGUGGCGCGAUAGCGCCAACGUCCUCAACCGCCAAUGCAUCCCACCACAUGAUGAUGCCUGAAGAGCCUUGGUUUUUUG, the “polymerase ribozyme fitness (log ratio)” value was -3.6.

In the case of GACCAAUCUGCCCUCAGAGCUGGAGCACAUGUUCGGAUGCAGAGUAGGCAGGCUUCGGUUGCGCGAUAGCGCCAACGUCCUCAACCUCCAAUGCAUCCCACCACAUGAUGAUGCCUGAAGAGCCUUGGUUUUUUG, the “polymerase ribozyme fitness (log ratio)” value is -8.09.

For the variant GACCAAUCUGCCCUCAGAGCUGGAGAACAUCUUCGGUUGCAGAGGAGGCAGGCUUCGGUGGCGCGAUAGCGCCAACGUCCUCAACCUCCAAUGCAUCCCACCAUAUGAUGAUGCCUGAAGAGCCUUGGUUUAUUG, the “polymerase ribozyme fitness (log ratio)” value is -3.57.

Turning to GACCAAUCUGCCCUCAGAGCUAGAGAACAUCUUCGGAUGCAGAGGAGGCAGGCUUCGGUGGCGCGAUAGCGCCAACGUCCUCAACCUCCAAUGCAUCCCACCACAUGAUUAUGCCUGAAGAGCCUUGGUUUUUUG, the “polymerase ribozyme fitness (log ratio)” value is -5.03.

With GACCAAUCUGCCCUCAGAGCUGGAGAACAUCUUCGGAUGAAGAGGAGGCAGGCUUCGGUGGCGCGAUACCGCCAACGUCCUCAACCUCCAAUGCAUCCCACCACAUGAUGAUACCUGAAGAGCCUUGGUUUUUUG, the “polymerase ribozyme fitness (log ratio)” value is -5.15.

With GACCAAUCUGCCCUCAGAGCUGGAGAACAUCUUCGGAUGCAGAGGAGGCAGGCUUCGGUGGCGCGAUAGCGCCAUCGUCCUCAACCUCCAAUGCAUCCCAUCACAUGAUGAUGCCUGAAGAGACUUGCUUUUUUG, the “polymerase ribozyme fitness (log ratio)” value is -6.24.

Regarding GACCAAUCUGCCCUCAGAGCUGGAGAACAUCUUCGGUUGCAGAGGAGGCAGGCUUCGGUGGCGCGAUAGCGCCAACGUCCUCAACCUUCAAUGCAUCCCACCACAUGAUGAUGCCUGAAGAGCCUUGGUUUUUUG, the “polymerase ribozyme fitness (log ratio)” value was -4.47.

On to GACCAAUCUGCCCUCAGAGCUGGAGACCAUCUUCGGAUGCAGAGGAGGCAGGCUUCGGUGGCGCGAUAGCGCCAACGUCCUCAACCUCCAAUGCAUCCCACCACAUGAUGAUGCCUGAAGAGCCUUGGUUUUUUG, for which the “polymerase ribozyme fitness (log ratio)” value is -4.37.

With GACCAAUCUGCCCUCAGAGCUGGAGACCAUCUUCGGAUGCAGAGGAGGCAGGCUUGGGUGGCGCGAUAGCGCCAACGUCCUCAACCUCCAAUGCAUCCCACCACAUGAUGAUGCCUGAACAGCCUUGGUUUUUUG, the “polymerase ribozyme fitness (log ratio)” value is -4.73.

In the case of GACCAAUCUGCCCUCAGAGCUGGAGAACAUCUUCGGAUGCAGAGGAGGCAGGCUUCGGUGGCGCGAUAGCGCCAACGUCCUCAACCUCCCACGCAUCCCACCACAUGAUGAUGCCUGAACAGCCUUGGUUUUUUG, the “polymerase ribozyme fitness (log ratio)” value is -3.7.
